Assay: soluble on expression in E. coli; label from the status in PepcDB or PDB records

| Sequence | soluble on expression in E. coli |
| --- | --- |
| MTKKRVALIFGGNSSEHDVSKRSAQNFYNAIEATGKYEIIVFAIAQNGFFLDTESSKKILALEDEQPIVDAFMKTVDASDPLARIHALKSAGDFDIFFPVVHGNLGEDGTLQGLFKLLDKPYVGAPLRGHAVSFDKALTKELLTVNGIRNTKYIVVDPESANNWSWDKIVAELGNIVFVKAANQGSSVGISRVTNAEEYTEALSDSFQYDYKVLIEEAVNGARELEVGVIGNDQPLVSEIGAHTVPNQGSGDGWYDYNNKFVDNSAVHFQIPAQLSPEVTKEVKQMALDAYKVLNLRGEARMDFLLDENNVPYLGEPNTLPGFTNMSLFKRLWDYSDINNAKLVDMLIDYGFEDFAQNKKLSYSFVSLGEEKIGKFN | soluble |
| MKKYLFAEQGFVEKPDFGADCWVCVETPDAEDMKFLIDTLNVPEDFLSDIADADERPRVEHDGDWHLTILRIPIESRLSGVPYVTVPMGIATRSDVTVSVCYHRAPMLADFLLHTRRKRIKVLNRTELVLRLIYSSAVWFLKYLKQINNEVTISERELERSIRNEDLIHLMMLQKTLVYFSTSIRGNEAVLGKIRASGENRIDEELVEDVRIELRQAYNTVNIYSDILSGTTEALSGVISNNLNTIMKR | not soluble |
| MGSDKIHHHHHHAQQKVEILPFGNMDQWVTREIKESGIIGGNTKKVYAIGPTETIVGAKPYANKGGSPWGTSNVMARVSGITKTNTSVFPETRGDGFCARLDTRMESVKVLGIVDITVLAAGSMFLGTVHEPIKSTKNPNKMLQMGIPFTDRPSAIQFDYKVKMSDRENRIRATGFSKITDVPGKDFPAVILLLQKRWEDAKGNVYAKRIGTMVNYYYHSTDWKNGSKYDIMYGDITKDPAYKAHMMRLQASEYFTVNSKGESVPIHEVAWGEADDVPTHMILQFTSSHGGAYIGSPGNSLYIDNVKLIY | not soluble |
| MGSDKIHHHHHHMHVDIELPLGRATALQRLRAQGFCVLTPAALETLTGMPLDAFDMMLPYWEELAPDLHLKDGGHYRYRRHGCFMQTLQPGQLETVQHRAHWQPTTYNALHGGMERWFEPLSNEMIHLPSWSALLVALGELFAKLRAPQGGRWYIEAHPFRIDTEGGVGRPTPEGAHRDGVDFVAVVFIGRQGVRGGETRVFDAAGPQGVRFTLEQPWTVLLLDDQQVIHESTPLLPLDPADPAVPAHRDTLVLTYRSGGFQAPA | not soluble |
| MGSDKIHHHHHHMSDARGAFHSKGRWSRMALPAILCAGLLVGCGAEPPAEEHVRVLAQTVKMAEFASATSITGDIQARVQADQSFRVGGKIVERLVDVGDHVAAGQVLARLDPQDQRSNVENAQAAVAAQQAQSKLADLNYQRQKALLPKGYTSQSEYDQALASVRSAQSSLKAAQAQLANARDLLSYTELRASDAGVITARQAEVGQVVQATVPIFTLARDGERDAVFNVYESLFSHDVDGQRITVSLLGKPEVTASGKVREITPTVDERSGTLKVKVGLDSVPAEMSLGSVVNASVAAPAEHSVVLPWSALSKVGEQPAVWLLDQQGKARLQPVRVARYASEKVVIDGGLEAGQTVVTVGGQLLHPGQVVEVAQPPQPTQSTASRDAVGGGQP | not soluble |
| MGSDKIHHHHHHNEMTEMNPDTNRTIGLDVYTEVQTRGTETTTSTLKANAGFGIFAYQTSSAGWNSEKGNTTPNFMYNEHATWTSDSWGYTNLRFWPIDDKKITFFAYAPYESKPEVGTDQKITLSGQNAKGAPTITFEVKTSNNWKDMIDLVTDCHTAIQDQTNESNKGTVQFKFSHVLTQIANIKVKPDVNLGTDTKIFVTGLKLDPGSTTLYNKAVYKFDNDTWEAISPDASYFSTEQDLSDFLNKTTTDQWGYNKSSINVSDDQNATALFSDTEALYFIPVNNKNGTTNAGDLKLKINYDIVTKVTDTSNLTSTITNKEVSLPKNTFKKGTKHTYVLTIKMNAIKITVEDNMEGWTDDSDSDINVEK | not soluble |
| MAHHHHHHMGKLSKDRRDIYYRKAKESGYRARSSFKLIQINEKFGILKLFKPDIYNCNNEKDLINIYNEHYCYNIVDLCAAPGSWSQVLKNICLYNYYQILYMINKYNNNENIKNIQHEEFLNKFSLYINYNEELENKIKNLKIKCSNIKEPNIVAVDLQEIGNMNYVKIIQGDITKMSTIDKILKCMNNKINSDEENVNVFYNMEQQKKENNFSYAHTVVSDGAPDITGMNDIDEFIQSQLILSSLKVCCSVLKVGGNFISKIFRGEHTGLLILHLNKFFQRVYICKPQSSRNKSLESFLVCLNFSLPRSNIISMNNHNAENKINDKYLSEEQMRKFHAQLITYKDKDDQESEEKKENYNSHDNIDYNLCHTTKHNKNISDEIETKEVSSPYEHNNIVENNVTPNSDMLKNINKIINEYDNDKNNLDIFNFYCSDSDEEIKYFNSEDEEVVNNYISSESFMSNKLFSFIATDNYYDSDKSYLLPENYVRHEPQLMPLKPPYMLSLQKKRQEVKK | not soluble |
| MEELKELRKEIDRIDEEILRLLNERAKLAKRIGEIKSKANLPIHVPEREREIFEKILRLNKEVYGGVFPQEALVHIYREIISACLSLEKKIKVAYLGPKATFTHQAALEFFGFSAHYTPCSTIRDVFVEVETKRADYGVVPVENTIEGVVNYTLDMFLESDVKIAGEIVIPITLHLLSASDSIENVEKVYSHKMALAQCRSWLEKNLPSVQVIEVESTAKACEIALEDERAGAVASEVAAYTYHLNILARNIQDSGDNFTRFLVIAKRDLKPTGSDKTSILFGVKDEPGALYKALEVFYKHGINLTKIESRPSKKKAWDYVFFVDLEGHKEEERVEKALKELKEKTQFLKVLGSYPKALLQE | soluble |
| SDKEYVGFAALPNQLHRKSVKKGFDFTLMVAGESGLGKSTLINSLFLTNLYEDRQVPEASARLTQTLAIERRGVEIEEGGVKVKLTLVDTPGFGDSVDCSDCWLPVVKFIEEQFEQYLRDESGLNRKNIQDSRVHCCLYFISPFGRGLRPLDVAFLRAVHEKVNIIPVIGKADALMPQETQALKQKIRDQLKEEEIHIYQFPECDSDEDEDFKRQDAEMKESIPFAVVGSCEVVRDGGNRPVRGRRYSWGTVEVENPHHCDFLNLRRMLVQTHLQDLKEVTHDLLYEGYRARCLQSLARPGARDRASRSKLSRQSATEIPLPMLPLADTEKLIREKDEELRRMQEMLEKMQAQMQQSQAQGEQSDAL | soluble |
| SSRTFTEQLNALLELGCETLGSSFGTLSRVHGDEYVFEAVTAPTTADLEAGRTTSIEDLPNCRHVVEHREPLAIRDVEADAPDLADPEWGIVNYIGAPVVVDGAVYGTFCFYGLEPRTAEFTQWDLTFVRLLSDWAGYELERQRHSEQRDALNTAF | not soluble |
| MEVEYMNFNELNLSDNILNAIRNKGFEKPTDIQMKVIPLFLNDEYNIVAQARTGSGKTASFAIPLIELVNENNGIEAIILTPTRELAIQVADEIESLKGNKNLKIAKIYGGKAIYPQIKALKNANIVVGTPGRILDHINRGTLNLKNVKYFILDEADEMLNMGFIKDVEKILNACNKDKRILLFSATMPREILNLAKKYMGDYSFIKAKINANIEQSYVEVNENERFEALCRLLKNKEFYGLVFCKTKRDTKELASMLRDIGFKAGAIHGDLSQSQREKVIRLFKQKKIRILIATDVMSRGIDVNDLNCVINYHLPQNPESYMHRIGRTGRAGKKGKAISIINRREYKKLRYIERAMKLKIKKLKFG | soluble |
| GMATVRLLDDAEISTLPEVKAVFDDIRATRGSDFVNNIWRGLANDPALLKRTWEQVKTVMVGEGALDPLTREMIYLAVSTANSCSYCAHSHTAAARAKGMTPAQHAEVLAIIGLAAQTNALVTAMQIPVDEAFLVDGK | soluble |
| MGHHHHHHSHLSPEPPVYSLQDFDTLATVGTGTFGRVHLVKEKTAKHFFALKVMSIPDVIRLKQEQHVHNEKSVLKEVSHPFLIRLFWTWHDERFLYMLMEYVPGGELFSYLRNRGRFSSTTGLFYSAEIICAIEYLHSKEIVYRDLKPENILLDRDGHIKLTDFGFAKKLVDRTWTLCGTPEYLAPEVIQSKGHGRAVDWWALGILIFEMLSGFPPFFDDNPFGIYQKILAGKIDFPRHLDFHVKDLIKKLLVVDRTRRLGNMKNGANDVKHHRWFRSVDWEAVPQRKLKPPIVPKIAGDGDTSNFET | not soluble |
| DRFVYTCNECKHHVETRWHCTVCEDYDLCITCYNTKNHDHKM | not soluble |
| MVRGFYLRFGEGVSEEANRRALALAEALLRAPPPGLLDAVPAYGVLYLEYDPRRLSRGRLLRLLKGLPQERAEEGRVVEIPVRYDGEDLPEVASRLGLSLEAVKALHQKPLYRVYALGFTPGFPFLAEVEPALRLPRKPHPRPRVPAHAVAVAGVQTGIYPLPSPGGWNLLGTSLVAVYDPHRETPFLLRPGDRVRFLEAEGPTPPEPRPLELLPEEPRLPALLVEEPGLMDLVVDGGRFLGGHLGLARSGPLDAPSARLANRLVGNGAGAPLLEFAYKGPVLTALRDLVAAFAGYGFVALLEGEEIPPGQSFLWPRGKTLRFRPRGPGVRGYLAVAGGLEVRPFLGSASPDLRGRIGRPLWAGDVLGLEALRPVRPGRAFPQRPLPEAFRLRLLPGPQFAGEAFRALCSGPFRVARADRVGVELLGPEVPGGEGLSEPTPLGGVQVPPSGRPLVLLADKGSLGGYAKPALVDPRDLWLLGQARPGVEIHFTSG | soluble |
| MIDVKSIILIVLDGLGDRPGEILGYRTPLQAAYHPNMNRMASLGMTGLMHPISPGIRSGSDTSHMSLLGYDPRVYYQGRGPFEALGLHMDMKPGDLAFRANFATNRDGKIIDRRAGRINAGNDQLASAISIDIGNYKFRVKSGVEHRAALVVSGPNLSDKISDSDPHSEGKPPEPIRPLDPSADSTAKIMNEYLKRIREILRDHPVNVEREKNGQIPGNELLIRSAGKVPDIPSFQEKNGITGACVVGSPWLKGLCRLLGMAVIDVPGAAGTINSNYTGKIKTAIDASKRYDFVLVNIKATDVAGHDGDYELKRRVIEDIDIAMEPLLGQSDRIVVAITGDHSTPCSVKDHSGDPVPIVFYTDGIYSDDVKLFDEVSAMKGALRITTQDVLNILMEMAGRAEKFGS | not soluble |
| DAVPEKSLNAALLCLQAMGALDDNGDVTEHGKKVYPLPIDALFADLVTRIPTKAEKEAMIDLAAALSVPAQLYQLQRGEAAEALEREEPLGCD | not soluble |
| MRRFKQQLAGRPAAAEIPLKRWLGVASHRCPAGPKRRRHDVMTCPSTQLRLAPITTGLVRRNPRILLSGPHQPTLVRYLEGWPKRWNGSRTFLIQFAQDGKDLARFPSDAFDFAVVQAPEAEDLDLVVRQLIRVARQGLITRRILR | not soluble |
| MGSDKIHHHHHHVALLQDELKIRKIHELLHMKLALPPYQRPYSWSVKSANTLFQDTYNAYHEGLQEYRVGSVILHKENGKYNIVDGQQRLTTISILLYCLGEKDLGLLQEKYNQLSNDVIVTNYEILSKRISELPKDEQNKYKNYLFERCSVVQIVTDSEQEAFQFFDSQNSRGKELTPHDLLKSYHLREMNDEEENQKIRIINQWENVNQDDLNDLFKIYLYPLTQWYKGKSGLGYSSSKIDVFKGIKTTNVFNYAIYHKASNLFVEQFNANGSNELLASRALNQFQLTQPLMAGKRFFYYTLHYRNLLEQVQRLVSKVHTEEQVPSRRTGDLYIKQLYECALLFFADRFGIENLSKAVMQQLYTWSYSLRLVMEAVYLQTINKYVRGEHERVNYGLGMFSEISEMKNGEELKLISLEQPKIENKNKEKYRDVYDLLCEWNRW | not soluble |
| MGHHHHHHGGHMSLEIVKEVERLIREGKILDAFELVKQSAPEELRERIEKSFRDAEEIKKLDGIWKKLMLILHFVYASQDAVERQDKQSLVSCVVSSVNAIKLTIELGMKSITPVLMRNAARALILMDMKENAERMYTEAEKICEENRDEEMLAAIENDLATLYYDMGKYNEAKVKAEEALEIRRKIGTKEELAESLATASEIYVKLGDFDEAEECYREAEKLYRELVEEAESFKLNLAILLSNYAMFRKKLGRYQEAEKMFKEALEIFQNLERIDADFMQFVAAAYRHLGDLYREMKEYSKAEEYYKLSREKFRDIQKRWESVASEGGS | soluble |

From the DeepSol protein solubility set
